Reference: article PMC9253517 (The Journal of Experimental Medicine, 2022)

B1: JN106 (antibody, V domains shown)
VH: EVQLVESGGGLVQPGGSLRLSCAASGFTFSENWMSWVRQAPGKGLEWVGNIKQDASEKYFVDSVKGRFTISRDNAKNSLYLQMDSLRAEDTAVYFCARWGYSNSYYYIDCWGQGTLVTVSS
VL: QAVVTQEPSFSVSPGGTVTFTCGLTSGSVSASNHPSWYQQTPGQAPRTLMYGTNIRSSGVPDRFSGSILGNKAALTITGAQADDECDYYCVLYIGDGVWVFGGGTKLTVL
B2: JN144 (antibody, V domains shown)
VH: QVQLVQSGPEVKKPGASVKVSCKASDYTFTSYDIIWVRQAPGQGLEWMGWISTHNGNTNYAQELQGRVTMTRETSTSTAHMELRSLRSDDTAVYYCARGPNRYLRLLEWSIPADWFFDLWGRGTLVTVSS
VL: EIVLTQSPGTLSLSPGDRATLSCRASQSVPSTSIAWYQQKPGQAPRLLFHGAASRAIGIPDRFSGSGSGTDFTLTISRLEPEDSAVYYCQHCGDSPPLLTFGPGTKVDIK
B3: JN108 (antibody, V domains shown)
VH: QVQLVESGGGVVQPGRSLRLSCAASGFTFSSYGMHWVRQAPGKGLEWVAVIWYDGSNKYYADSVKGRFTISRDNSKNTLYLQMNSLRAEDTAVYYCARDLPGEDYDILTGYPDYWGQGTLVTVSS
VL: QSALTQPASVSGSLGQSITISCTGTSSDVGSYNLVSWYQQHPGKVPKLMIYEANKRASGVSDRFSGSKTDNTASLTISGLQAEDEADYYCCSYAGSRTHVIFGGGTKLTV
B4: JN145 (antibody, V domains shown)
VH: QVQLVQSGAEVKKPGASVKVSCKASGYTFTSYYMHWVRQAPGQGLEWMGIINPSGGSTSYAQKFQGRVTMTRDTSTSTVYMELSSLRSEDTAVYYCARGESDDYVWGSYRYTNNWFDPWGQGTLVTVSS
VL: not shown
B5: JN133 (antibody, V domains shown)
VH: QLQLQESGPGLVKPSETLSLTCTVSGGSISSGSNYWGWIRQPPGKGLEWIGTIYYSGATYFSPSLKNRITISVDTSKNQFSLRLSSVIAADTAVYYCARLPFQNYYFYGMDVWGKGTTVTVSS
VL: SYELTQPPSVSVSPGQTARITCSGDVLPKQYAYWYQQKPGQAPVLVISKDSERPSGIPERFSGSSSGTTVTLTISGVQGEDEADYHCQSADSSGTWVFGGGTKLTVL
B6: JN141 (antibody, V domains shown)
VH: EVQLVESGGGLVQPGGSLRLSCAASGFTFSSYSMNWVRQAPGKGLEWVSYISSSSSTISYADSVKGRFTISRDNAKNSLYLQMNSLRAEDTAVYYCASGKGVGFDYWGQGTLVTVSS
VL: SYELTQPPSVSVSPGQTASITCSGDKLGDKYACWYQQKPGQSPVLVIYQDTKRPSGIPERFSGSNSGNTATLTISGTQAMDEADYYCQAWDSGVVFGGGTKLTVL
B7: JN130 (antibody, V domains shown)
VH: QVQLQESGPGLVKPSQTLSLTCTVSGGSISSGDYYWSWIRQPPGKGLEWIGYIYYSGSTYYNPSLKSRVTISVDTSKNQFSLKLSSVTAADTAVYYCARVLRFYDNIWENYRLPRYFDYWGQGTLVTVSS
VL: QSALTQPRSVSGSPGQSVSISCTGTSSDVGGSEYVSWYQQHPGKAPKLMIYDVNQRPSGVPARFSGSKSGNTASLTISGLQAEDEADYYCCSYAGTYNFEVFGGGTKLSVL
B8: JN142 (antibody, V domains shown)
VH: QVQLVQSGAEVKKPGASVKVSCKASGYTFTSYDINWVRQATGQGLEWMGWMNPNSGNTGYAQKFQGRVTMTRNTSISTAYMELSSLRSEDTAVYYCARVLAPYDYVWGSYRYDNWFDPWGQGTLVTVSS
VL: QSVLTQPPSVSAAPGQKVTISCSGSSSNIGNNYVSWYQQLPGTAPKLLIYDNNKRPSGIPDRFSGSKSGTSATLGITGLQTGDEADYYCGTWDSSLSALFGGGTKLTVL
B9: JN131 (antibody, V domains shown)
VH: EVQLVESGGGLVKPGGSLRLSCAASGFTFNSYSMNWVRQAPGKGLEWVSSISSSSNFIYYADSVKGRFTISRDNAKNSLYLQMNSLRAEDTAMYYCARDPGYRSSWFEVYYFDYWGPGTLVTVSS
VL: QSALTQPASVSGSPGQSITISCTGTSSDVGSYNLVSWYQQHPGKAPKLVIYEVTKRPSGVSNRFSGSKSGNTASLTISGLQAEDEADYYCCSYGGSTTSPYVFGTGTKVTVL

What was measured:
[1] = target: SARS-CoV-2 Wuhan-Hu-1 NTD (SARS-CoV-2, UniProt P0DTC2 14-307); test: cell-based or functional assay
[2] = target: SARS-CoV-2 Wuhan-Hu-1 NTD (SARS-CoV-2, UniProt P0DTC2); test: cell-based or functional assay

Row | Binder | neutralisation IC50, WT (293TAce2) [1] [µg/mL] | neutralisation IC50, WT (293TAce2) [2] [µg/mL]
1 | B1 | > 1 | –
2 | B2 | > 1 | –
3 | B3 | – | > 1
4 | B4 | 0.688 | –
5 | B5 | > 1 | –
6 | B6 | > 1 | –
7 | B7 | > 1 | –
8 | B8 | > 1 | –
9 | B9 | > 1 | –
